The results in this text go back to PMC9916804.

One experiment deals with gametogenesis essential protein 1 (GEP1), truncation GEP1^192-905, Strep-tagged. Description: pull-down (Strep-Tactin beads), GFP intensity of elution. Further details: reference not given here. Conditions: co-expression of GEP1-192-905 and GCα-2301-3850; parent: est. 100; read off a plot.
As to “guanylate cyclase α C-terminal half, GCα^2301-3850, with N-terminal mEGFP S2910W”, the percent of parent stood at 74%.

Turning to “guanylate cyclase α C-terminal half, GCα^2301-3850, with N-terminal mEGFP D3598A”, the percent of parent is 110%.

As for “guanylate cyclase α C-terminal half, GCα^2301-3850, with N-terminal mEGFP E2794A”, the percent of parent was 80%.

“guanylate cyclase α C-terminal half, GCα^2301-3850, with N-terminal mEGFP N3724W”: the percent of parent was 110%.

Regarding “guanylate cyclase α C-terminal half, GCα^2301-3850, with N-terminal mEGFP D3642V”, the percent of parent amounted to 100%.

A further experiment deals with gametogenesis essential protein 1 (GEP1), truncation GEP1^192-905, Strep-tagged (Plasmodium yoelii). In words: pull-down; mutants of mEGFP-GCα^2301-3850 with Strep-tagged GEP1^192-905 on Strep-Tactin beads; GFP intensity of the eluates against WT; whether co-expressed or mixed is not stated.
Conditions: not given
Consider “GCα^2301-3850 (GCα-C) Q2755A, mEGFP-tagged (domain or fragment)”, for which the GFP intensity of the pull-down eluate, percent of WT was 49.2 % of WT.
